Patent publication US6746858B1, “Murd protein and gene of Streptococcus pyogenes” (Merck & Co. Inc., priority 1997, dated 2004)

B1: S. pyogenes: recombinant Streptococcus pyogenes MurD protein (SEQ ID NO:2), His-tag removed, partially purified (protein)
chain: MKVISNFQNKKILILGLAKSGEAAAKLLTKLGALVTVNDSKPFDQNPAAQALLEEGIKVICGSHPVELLDEDFEYMVKNPGIPYDNPMVKRALAKEIPILTEVELAYFVSEAPIIGITGSNGKTTTTTMIADVLNAGGQSALLSGNIGYPASKVVQKAIAGDTLVMELSSFQLVGVNAFRPHIAVITNLMPTHLDYHGSFEDYVAAKWMIQAQMTESDYLILNANQEISATLAKTTQATVIPFSTQKVVDGAYLKDGILYFKEQAIIAATDLGVPGSHNIENALATIAVAKLSGIADDIIAQCLSHFGGVKHRLQRVGQIKDITFYNDSKSTNILATQKALSGFDNSRLILIAGGLDRGNEFDDLVPDLLGLKQMIILGESAERMKRAANKAEVSYLEARNVAEATELAFKLAQTGDTILLSPANASWDMYPNFEVRGDEFLATFDCLRGDA
modifications: His-tag removed; Streptococcus pyogenes MurD

Assays:
E. coli MurD = E. coli MurD (Escherichia coli, UniProt P14900); conditions: 350 μM UDP-N-acetyl-muramyl-L-alanine
Sequence of E. coli MurD (P14900 whole entry): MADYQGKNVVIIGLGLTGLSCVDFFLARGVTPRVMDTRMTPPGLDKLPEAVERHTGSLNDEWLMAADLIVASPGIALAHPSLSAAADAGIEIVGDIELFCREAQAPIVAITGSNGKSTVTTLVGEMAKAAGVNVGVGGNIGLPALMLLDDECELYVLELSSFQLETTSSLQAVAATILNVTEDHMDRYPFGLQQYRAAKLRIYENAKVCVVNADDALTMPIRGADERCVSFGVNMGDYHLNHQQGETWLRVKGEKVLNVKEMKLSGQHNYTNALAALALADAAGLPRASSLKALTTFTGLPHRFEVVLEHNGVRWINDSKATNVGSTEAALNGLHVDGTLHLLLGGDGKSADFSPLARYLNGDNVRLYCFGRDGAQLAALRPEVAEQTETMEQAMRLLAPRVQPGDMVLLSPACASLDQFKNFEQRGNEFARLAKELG
Protocol: The ATP-dependent MurD activity was assayed by monitoring the formation of product ADP using the pyruvate kinase and lactate dehydrogenase coupled enzyme assay. The reaction was monitored spectrophotometrically.
Typically, the assay contained 100 mM BIS-TRIS-propane, pH 8.0, 200 μM NADH, 1 mM ATP, 20 mM PEP, 5 mM MgCl2, 1 mM DTT, 350 μM UDP-N-acetyl-muramyl-L-alanine, 1 mM D-glutamate, 33 units/ml of pyruvate kinase and 1660 units/ml of lactate dehydrogenase in a final volume of 200 or 400 μL. The mixture was incubated at 25° C. for 5 min and the reaction initiated by the addition of 1-10 μg of MurD. ADP formation was monitored by the decrease in absorbance at 340 nm as a function of time using a Molecular Devices SpectramaxPlus microtiterplate spectrophotomer (for 200 μl assays) or a Hewlett-Packard HP8452A spectrophotometer equipped with a circulating water bath (for 400 μl assays). Rates were calculated from the linear portions of the progress curves using the extinction coefficient for NADH, e=6220 cm^−1 M^−1. One unit of MurD activity is equal to 1 μmol of ADP formed per min at 25° C.
Assays have been conducted using 120 and 350 μM UDP-N-acetyl-muramyl-L-alanine.

S. pyogenes MurD = experiment: ATP-dependent MurD activity, pyruvate kinase/lactate dehydrogenase coupled enzyme assay (ADP formation); type: biochemical, Streptococcus pyogenes; conditions: partially purified, UDP-N-acetylmuramyl-L-ala 350 μM, D-glutamate 1 mM, ATP 1 mM, 200 μl, 25° C.
Protocol: The cell pellet from 100 ml of induced culture prepared as described above was resuspended in 10 ml BT buffer (50 mM bis-tris-propane, pH 8.0, containing 100 mM potassium chloride and 1% glycerol) at 4° C. Cells were lysed either by freeze-thaw or by French Press. After centrifugation, the supernatant was mixed with 15 ml of freshly prepared Talon resin and incubated for 30 min at room temp. The resin was washed twice by centrifugation with 25 ml of BT buffer at room temperature. Finally, the resin loaded into a column and washed with 20 ml of BT, pH 7.0, containing 5 mM imidazole. Protein was eluted with 20 ml of BT buffer pH 8.0, containing 100 mM imidazole. Fractions (0.5 ml) were collected and analyzed by SDS-Gel electrophoresis. Fractions containing MurD were pooled, cleaved with thrombin (20 units/mg of His-tagged MurD) to remove the histidine tag. Finally the MurD protein was purified on Superdex 75 size exclusion column and eluted in 10 mM tris, pH 7.4, 150 mM NaCl and dialyzed in 100 mM MOPS, pH 7.5, using a Slide-A-Lyzer (Pierce, Rockford, Ill.). […] The protein may be purified further, if desired, using methods known in the art.
The reaction was monitored spectrophotometrically.

Molecule	substrate inhibition of the E. coli MurD (E. coli MurD)	units (S. pyogenes MurD; 0.00137 mg protein) [µmol/min]	Specific activity (S. pyogenes MurD) [µmol/min/mg]
CC(=O)N[C@H]1C(OP(=O)(O)OP(=O)(O)OC[C@H]2O[C@@H](n3ccc(=O)[nH]c3=O)[C@H](O)[C@@H]2O)O[C@H](CO)[C@@H](O)[C@@H]1O[C@H](C)C(=O)N[C@H](C)C(=O)O (stereo partly drawn) [UDP-N-acetyl-muramyl-L-alanine]	substrate inhibition		
B1		0.00017	0.13
